Reference: the supplement of paper PMC10724198
± gives the standard deviation of the averaged measurements.

System: Saccharomyces cerevisiae
Assay: protein stability index of tFT-peptide fusion (C-terminal peptide) (PSI (0-1 scale)); higher = more stable (slower turnover)
Conditions: genetic background: wild type; temperature: 30 C
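Note: PSI is a weighted mean of sequencing reads over stability bins, variants kept only with over 10 reads, mCherry proximal and sfGFP distal, peptide attached via GGGS linker.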

| Sequence | protein stability index |
| --- | --- |
| RRNDRKKKSIRI | 0.684 ± 0.059 |
| PPRTMTLSAPLT | 0.708 ± 0.02 |
| DPTPLALSPDHP | 0.63 ± 0.057 |
| HVYDQLLSGAVA | 0.691 ± 0.017 |
| SSFGPSFLTLFF | 0.70403 ± 0.00044 |
| GGGKRGDMSVVV | 0.689 ± 0.0092 |
| RGRMGLGAPGGG | 0.615 ± 0.0085 |
| NREPQPAHTHML | 0.684 ± 0.043 |
| HMLVCPLAALGI | 0.6884 ± 0.0031 |
| VACFLCTPKWFE | 0.69 ± 0.057 |
| VCRADADRFVGL | 0.71 ± 0.059 |
| GRRGGRLSWAPG | 0.659 ± 0.017 |
| RCCGRSRLVVPW | 0.6986 ± 0.0023 |
| PAPVFPILTPPY | 0.734 ± 0.059 |
| PAHAPSLSPPPF | 0.697 ± 0.016 |
| SMAPDIQLYTAS | 0.68901 ± 0.0006 |
| DPRRNGAPLRSI | 0.676 ± 0.039 |
| TPSAPPPTHPYP | 0.684 ± 0.036 |
| ALPGHFCVSFLP | 0.752 ± 0.033 |
| PHPPPVPAPPPP | 0.663 ± 0.008 |
| GPLVGGDGRWVG | 0.706 ± 0.011 |
| SSLRPPPPLPPP | 0.682 ± 0.012 |
| LPTSSTRVEFSV | 0.638 ± 0.045 |
| LRSAYGHCLQKI | 0.715 ± 0.14 |
| TLLAALIRFDAV | 0.691 ± 0.041 |
| TKKNKLRQKKTE | 0.6457 ± 0.0028 |

| Sequence | protein stability index |
| --- | --- |
| PQTAGTHRARVN | 0.698 ± 0.026 |
| VQVLLMFTWERE | 0.511 ± 0.016 |
| GGGRGAGIPVIF | 0.623 ± 0.073 |
| FVVAERSDRNLV | 0.6875 ± 0.00093 |
| GRGGIGDGGPVW | 0.6395 ± 0.00092 |
| PLHLYPHPPTHS | 0.698 ± 0.078 |
| LAGLLMSPNMSP | 0.697 ± 0.025 |
| PPPSPSTPKTTL | 0.6943 ± 0.0068 |
| WNSISGRTVVYM | 0.709 ± 0.092 |
| PAPLSRPLSPTL | 0.6841 ± 0.0055 |
| SLRNGESTGLCF | 0.743 ± 0.098 |
| LAYITTTPALAS | 0.581 ± 0.048 |
| DAGRETGRLVGG | 0.708 ± 0.032 |
| YWSAQGRVVCVL | 0.481 ± 0.07 |
| ETGTRELIRQWV | 0.718 ± 0.02 |
| QKKIIRKRKKNR | 0.666 ± 0.012 |
| GTGTNGPSSAKL | 0.7399 ± 0.0056 |
| TTRHPRLHYIDP | 0.674 ± 0.019 |
| RRLLLAGTQLYV | 0.598 ± 0.073 |
| THLASTESVVRP | 0.69 ± 0.033 |
| ALESHFMVPSFP | 0.693 ± 0.043 |
| VPLTKHENNFNE | 0.709 ± 0.018 |
| NESGWHNLLMSV | 0.708 ± 0.0097 |
| WRAGSGGGPLAS | 0.68 ± 0.043 |
| PLPPPSPSSLSP | 0.713 ± 0.074 |
| PPHHLPPGPPHP | 0.72 ± 0.078 |

| Sequence | protein stability index |
| --- | --- |
| LSMPRVHTRHRP | 0.708 ± 0.014 |
| GGVGVYSVMVGG | 0.575 ± 0.015 |
| PPPLLPASFHLP | 0.629 ± 0.0082 |
| PLCLPALPPPLP | 0.676 ± 0.097 |
| VVGAIVILRGLR | 0.632 ± 0.018 |
| PTRSEGYSVVYM | 0.693 ± 0.043 |
| AYSMMNLYNFAL | 0.67 ± 0.014 |
| SEFKLVVGSRSD | 0.715 ± 0.032 |
| LWTASISVAEVR | 0.633 ± 0.012 |
| LHGRTLENIVVR | 0.6481 ± 0.0044 |
| LSVAYSDIIVRC | 0.554 ± 0.0065 |
| FCCFFFPALCCL | 0.493 ± 0.024 |
| YDYASTCGSCIY | 0.774 ± 0.024 |
| GSSVRGSLGREI | 0.711 ± 0.028 |
| PHPAPPPSPSPS | 0.715 ± 0.033 |
| DINHTSKKKIYI | 0.663 ± 0.015 |
| ENCPPETLNRGE | 0.686 ± 0.081 |
| YFALLMLTPPPP | 0.636 ± 0.022 |
| APPPLPSPRPAA | 0.699 ± 0.04 |
| PPPPYPLPASCL | 0.653 ± 0.058 |
| PRPPPPPASVCR | 0.6579 ± 0.00069 |
| CMFRCCLRSLVL | 0.639 ± 0.0064 |
| YPDNRGRGPRQP | 0.686 ± 0.082 |
| GIPYGWLLCFPR | 0.813 ± 0.021 |
| TVFFVLGTESRV | 0.664 ± 0.032 |
| PTRRFVFCDVDK | 0.717 ± 0.077 |

| Sequence | protein stability index |
| --- | --- |
| TVRWRRGTGGAR | 0.704 ± 0.019 |
| PSALLGTCRCVQ | 0.706 ± 0.028 |
| PPLCPPLQPPLI | 0.639 ± 0.02 |
| GVGWPGVGAGGG | 0.635 ± 0.05 |
| TAKGSSIMCVKI | 0.729 ± 0.05 |
| LSFSFSPTSPPP | 0.739 ± 0.072 |
| GSMTGYVRVGEG | 0.57 ± 0.0064 |
| TFQMAYHSRTAV | 0.637 ± 0.13 |
| YLPRLISAPVGP | 0.753 ± 0.076 |
| WFFRSVVPRCGG | 0.63 ± 0.038 |
| GLNPPDPYPVSF | 0.754 ± 0.11 |
| ACVSWLPVPRQS | 0.6964 ± 0.0062 |
| PSPSAGPAPTPL | 0.65 ± 0.084 |
| LFTSLYWAFRSR | 0.679 ± 0.016 |
| RIIIRNIKKKTE | 0.641 ± 0.023 |
| CSEHFLIDTYPA | 0.679 ± 0.05 |
| SVYLPFPSGLLL | 0.728 ± 0.073 |
| SCDIFIYTHLVS | 0.612 ± 0.031 |
| VVVVRCGWGGCG | 0.592 ± 0.012 |
| SLFFPLPLSSLF | 0.736 ± 0.07 |
| LYITLLEFKEGR | 0.643 ± 0.025 |
| INTNASSWRICK | 0.7379 ± 0.0049 |
| YLYMESTVESHL | 0.719 ± 0.025 |
